Assay results taken from publication PMC2958806.

Columns and labels:
[1] = biological target: DENV2 E DI/II protein (E domains I and II, E residues 1-291) (dengue virus 2 (New Guinea C strain))
[2] = biological target: DENV2 E DI/II H244A (dengue virus 2 (New Guinea C strain))

Substance | liposome co-floatation of DI/II at low pH in the presence of DIII (no co-floatation when BSA was substituted for DIII) [1] | liposome co-floatation of H244A DI/II at pH 5.75 with DIII, efficiency of floatation in the presence of pr (43% in the absence of pr) [2]
DENV2 NGC DIII (LDIIIH1CS, E residues 289-430) (domain or fragment) | 25% | 
DENV2 pr peptide (recombinant, prM residues 1-86 with tandem Strep tag) (domain or fragment) |  | 47%
